Experimental data as given in US20220162334A1 (SHANGHAI HENLIUS BIOTECH, published 2022).
Residue numbers refer to the chain shown, from its start. Numbers in names are those of the source.

Columns and labels:
[1] = target: T1, human CD73 on CD73-expressing human tumor cells (MDA-MB-231, NCI-H292) (human, UniProt P21589 27-549); assay: flow cytometry on MDA-MB-231 and NCI-H292 cells (FIGS. 11A, 11B)
T1 construct: whole, on cells; The cell line of each result is named under assay or readout; also called cell surface CD73; surface CD73
T1 sequence (looked up): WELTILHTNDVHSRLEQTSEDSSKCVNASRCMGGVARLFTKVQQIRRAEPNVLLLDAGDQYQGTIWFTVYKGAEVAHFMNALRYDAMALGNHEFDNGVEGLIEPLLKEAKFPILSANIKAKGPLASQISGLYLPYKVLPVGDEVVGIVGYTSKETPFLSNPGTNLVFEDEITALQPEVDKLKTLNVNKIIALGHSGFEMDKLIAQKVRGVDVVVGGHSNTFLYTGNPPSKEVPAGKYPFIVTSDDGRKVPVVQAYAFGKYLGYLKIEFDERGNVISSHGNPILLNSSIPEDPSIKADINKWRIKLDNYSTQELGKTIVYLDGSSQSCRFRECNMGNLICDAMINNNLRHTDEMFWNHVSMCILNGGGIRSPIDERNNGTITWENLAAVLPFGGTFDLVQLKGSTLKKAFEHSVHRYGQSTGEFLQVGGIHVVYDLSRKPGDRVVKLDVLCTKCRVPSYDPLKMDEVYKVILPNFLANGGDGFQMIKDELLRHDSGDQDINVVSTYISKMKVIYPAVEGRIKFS
Description: Whole cell binding ability of anti-CD73 antibodies were tested by incubating the MDA-MB-231 or NCI-H292 cells with the serial-diluted antibodies in FACS buffer (PBS with 2% FBS) at 4° C. for 30 minutes. Cells were washed with FACS buffer and the binding was detected with FITC-labeled goat anti-human IgG (H+L) antibodies (or PE-labeled goat anti-human IgG Fcγ) at 4° C. for another 30 minutes. The binding of antibodies to cell surface was measured by the mean fluorescent intensity (MFI) of staining. Flow cytometric analyses were performed using the Cytomics FC500 or CytoFLEX flow cytometry (Beckman Coulter Inc.). FIGS. 2B and 2C show selected anti-CD73 antibodies binding to CD73-expressing human tumor cells MDA-MB-231 (human breast adenocarcinoma) cells (FIG. 2B), and NCI-H292 (human mucoepidermoid pulmonary carcinoma) cells (FIG. 2C).
FIGS. 11A-11B also show CD73 binding of N1 and N4 variants. Selected variants were tested the binding to CD73-expressing MDA-MB-231 (FIG. 11A) and NCI-H292 (FIG. 11B) cells by flow cytometry. HLX01 (anti-CD20) was used as the negative control. […] N4 variants have better CD73 binding ability than N1 variants in these two cell lines. The rank of the whole cell binding ability is: N4#5, N4#6-4, N4#6-5>N4#6-2>N4#4-3, N4#6, N4#6-3, N1#9>N1#2.

[2] = target: T1, human CD73 on CD73-expressing human …; assay: flow cytometry on MDA-MB-231 cells, biotin-labeled antibody, streptavidin-FITC (FIG. 5A)
Description: (§1) The binding of anti-CD73 antibodies to cell surface CD73 were tested by incubating the MDA-MB-231 cells with the serially diluted biotin-labeled anti-CD73 antibodies in FACS buffer (PBS with 2% FBS) at 4° C. for 30 minutes. The cells were washed with FACS buffer and the binding was detected with streptavidin-FITC at 4° C. for 30 minutes. Flow cytometric analyses were performed using the Cytomics FC500 (Beckman Coulter Inc.).
(§2) The variable sequences of N1, N2 and N4 were cloned into human wild-type or C219S mutant IgG2 Fc backbone. Different IgG isotypes of N1 (FIG. 5A), N2 (FIG. 5B), N4 (FIG. 5C) were tested the binding to CD73-expressing human MDA-MB-231 cells by flow cytometry. Anti-CD73 ref-1 antibody and HLX01 (anti-CD20) were used as the positive and negative control respectively.

[3] = target: T1, human CD73 on CD73-expressing human …; assay: flow cytometry on MDA-MB-231 cells, biotin-labeled antibody, streptavidin-FITC (FIG. 5B)
Description: as §1, §2

[4] = target: T1, human CD73 on CD73-expressing human …; assay: flow cytometry on MDA-MB-231 cells, biotin-labeled antibody, streptavidin-FITC (FIG. 5C)
Description: as §1, §2

B1: N4#6 (antibody, human IgG2, V domains shown)
VH: QVQLVQSGAEVKKSGSSVKVSCKASGGTFSSYAISWVRQAPGQGLEWMGGIIPIFGTTNYAQKFQGRVTITADESTSIAYMELSSLRSEDTAVYYCASDGAVAAYDAFLIWGQGTMVTVSS
VL: QAVLTQPSSVSGAPGQRVTISCTGTSSNIGAGYDIHWYQQLPGTAPKLLMYRFTRRPSGVPDRFSGSKSGTSASLTITGLQVEDEADYYCQSYDSGQRGWVFGGGTKLTVL
notes: also called N4 variant N4#6
B1: binds [1].

B2: N4#4-3 (antibody, human IgG2, V domains shown)
VH: B1 VH with S30A, T58V, L109D
VL: B1 VL with A31Q, Q97L, V101A
notes: also called N4 variant N4#4-3
B2: binds [1].

B3: N4#5 (antibody, human IgG2, V domains shown)
VH: B1 VH with S35A, T58V, L109S
VL: B1 VL with Q97L, W100L
notes: also called N4 variant N4#5
B3: binds [1].

B4: N4#6-2 (antibody, human IgG2, V domains shown)
VH: B1 VH with G50R
VL: B1 VL with A31H, Q40H, T54V
notes: also called N4 variant N4#6-2
B4: binds [1].

B5: N4#6-3 (antibody, human IgG2, V domains shown)
VH: B1 VH with T58A
VL: B1 VL with A31L, Q40H, T54D
notes: also called N4 variant N4#6-3
B5: binds [1].

B6: N4#6-4 (antibody, human IgG2, V domains shown)
VH: B1 VH with G50M, T58A
VL: B1 VL with Y33F, T54S
notes: also called N4 variant N4#6-4
B6: binds [1].

B7: N4#6-5 (antibody, human IgG2, V domains shown)
VH: B1 VH with G50R, V93M
VL: B1 VL with A31T
notes: also called N4 variant N4#6-5
B7: binds [1].

B8: N1#9 (antibody, human IgG2, V domains shown)
VH: EVQLVESGGGLVQPGRSLRLSCAASGFTFDDYAMHWVRLAPGKGLEWVSGISWNSGSIGYADSVRGRFTISRDNAKNSLYLQMNSLRAEDTALYYCAKDMGWSLLKTNYYGMDVWGQGTTVTVSS
VL: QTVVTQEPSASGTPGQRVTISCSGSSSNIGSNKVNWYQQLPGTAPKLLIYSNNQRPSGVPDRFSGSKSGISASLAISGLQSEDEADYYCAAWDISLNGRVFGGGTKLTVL
notes: also called N1 variant N1#9
B8: binds [1].

B9: N1#2 (antibody, human IgG2, V domains shown)
VH: B8 VH with F27L, L39Q, G56N, S63P, S103E, N108S
VL: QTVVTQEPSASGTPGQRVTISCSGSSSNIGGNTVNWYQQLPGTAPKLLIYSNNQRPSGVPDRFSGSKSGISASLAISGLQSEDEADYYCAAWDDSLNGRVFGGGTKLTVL
notes: also called N1 variant N1#2
B9: binds [1].

B10: N1-wtIgG2 (antibody)
heavy: EVQLVESGGGLVQPGRSLRLSCAASGFTFDDYAMHWVRQAPGKGLEWVSGISWNSGSIGYADSVRGRFTISRDNAKNSLYLQMNSLRAEDTALYYCAKDMGWELLKTYYYGMDVWGQGTTVTVSSASTKGPSVFPLAPCSRSTSESTAALGCLVKDYFPEPVTVSWNSGALTSGVHTFPAVLQSSGLYSLSSVVTVPSSNFGTQTYTCNVDHKPSNTKVDKTVERKCCVECPPCPAPPVAGPSVFLFPPKPKDTLMISRTPEVTCVVVDVSHEDPEVQFNWYVDGVEVHNAKTKPREEQFNSTFRVVSVLTVVHQDWLNGKEYKCKVSNKGLPAPIEKTISKTKGQPREPQVYTLPPSREEMTKNQVSLTCLVKGFYPSDIAVEWESNGQPENNYKTTPPMLDSDGSFFLYSKLTVDKSRWQQGNVFSCSVMHEALHNHYTQKSLSLSPGK
light: not shown
notes: Heavy chain assembled from VH and the named constant region entry; also called N1 clone, wtIgG2 isotype
B10: binds [2].

B11: N1-mtIgG2 (antibody)
heavy: B10 heavy with C227S
light: not shown
notes: Heavy chain assembled from VH and the named constant region entry; also called N1 clone, mtIgG2 isotype; C219S mutant IgG2
B11: binds [2].

B12: N1-tmtIgG1 (antibody)
heavy: EVQLVESGGGLVQPGRSLRLSCAASGFTFDDYAMHWVRQAPGKGLEWVSGISWNSGSIGYADSVRGRFTISRDNAKNSLYLQMNSLRAEDTALYYCAKDMGWELLKTYYYGMDVWGQGTTVTVSSASTKGPSVFPLAPSSSTSGGTAALGCLVKDYFPEPVTVSWNSGALTSGVHTFPAVLQSSGLYSLSSVVTVPSSSLGTQTYICNVNHKPSNTKVDKRVEPKSCDKTHTCPPCPAPEFEGGPSVFLFPPKPKDTLMISRTPEVTCVVVDVSHEDPEVKFNWYVDGVEVHNAKTKPREEQYNSTYRVVSVLTVLHQDWLNGKEYKCKVSNKALPASIEKTISKAKGQPREPQVYTLPPSREEMTKNQVSLTCLVKGFYPSDIAVEWESNGQPENNYKTTPPVLDSDGSFFLYSKLTVDKSRWQQGNVFSCSVMHEALHNHYTQKSLSLSPGK
light: not shown
notes: Heavy chain assembled from the VH entry and the constant region entry named tmtIgG1; also called lead N1; N1 clone, tmtIgG1 isotype
B12: binds [2].

B13: N2-tmtIgG1 (antibody)
heavy: QVQLQQWGAGLLKPSETLSLTCAVYGGSFSGYYWSWIRQPPGKGLEWIGEINHSGSTNYNPSLKSRVTISVDTSKNQFSLKLSSVTAADTAVYYCARGRYDFWSGYYAYFDYWGQGTLVTVSSASTKGPSVFPLAPSSSTSGGTAALGCLVKDYFPEPVTVSWNSGALTSGVHTFPAVLQSSGLYSLSSVVTVPSSSLGTQTYICNVNHKPSNTKVDKRVEPKSCDKTHTCPPCPAPEFEGGPSVFLFPPKPKDTLMISRTPEVTCVVVDVSHEDPEVKFNWYVDGVEVHNAKTKPREEQYNSTYRVVSVLTVLHQDWLNGKEYKCKVSNKALPASIEKTISKAKGQPREPQVYTLPPSREEMTKNQVSLTCLVKGFYPSDIAVEWESNGQPENNYKTTPPVLDSDGSFFLYSKLTVDKSRWQQGNVFSCSVMHEALHNHYTQKSLSLSPGK
light: LNFMLTQPHSVSESPGKTVTISCTCSGGRIANNYVQWYQQRPGTSPTTVIYEDNLRPSGVPDRFSGSIDRASNSASLTISDLRTEDEAHYYCQSYDSNDGVAFGGGTKLTVLGQPKAAPSVTLFPPSSEELQANKATLVCLISDFYPGAVTVAWKADSSPVKAGVETTTPSKQSNNKYAASSYLSLTPEQWKSHRSYSCQVTHGGSTVEKTVALTECS
notes: Heavy chain assembled from the VH entry and the constant region entry named tmtIgG1; also called lead N2; N2 clone, tmtIgG1 isotype
B13: binds [3].

B14: N2-wtIgG2 (antibody)
heavy: QVQLQQWGAGLLKPSETLSLTCAVYGGSFSGYYWSWIRQPPGKGLEWIGEINHSGSTNYNPSLKSRVTISVDTSKNQFSLKLSSVTAADTAVYYCARGRYDFWSGYYAYFDYWGQGTLVTVSSASTKGPSVFPLAPCSRSTSESTAALGCLVKDYFPEPVTVSWNSGALTSGVHTFPAVLQSSGLYSLSSVVTVPSSNFGTQTYTCNVDHKPSNTKVDKTVERKCCVECPPCPAPPVAGPSVFLFPPKPKDTLMISRTPEVTCVVVDVSHEDPEVQFNWYVDGVEVHNAKTKPREEQFNSTFRVVSVLTVVHQDWLNGKEYKCKVSNKGLPAPIEKTISKTKGQPREPQVYTLPPSREEMTKNQVSLTCLVKGFYPSDIAVEWESNGQPENNYKTTPPMLDSDGSFFLYSKLTVDKSRWQQGNVFSCSVMHEALHNHYTQKSLSLSPGK
light: B13 light
notes: also called N2 clone, wtIgG2 isotype
B14: binds [3].

B15: N2-mtIgG2 (antibody)
heavy: B14 heavy with C225S
light: B13 light
notes: also called N2 clone, mtIgG2 isotype; C219S mutant IgG2
B15: binds [3].

B16: N4-tmtIgG1 (antibody)
heavy: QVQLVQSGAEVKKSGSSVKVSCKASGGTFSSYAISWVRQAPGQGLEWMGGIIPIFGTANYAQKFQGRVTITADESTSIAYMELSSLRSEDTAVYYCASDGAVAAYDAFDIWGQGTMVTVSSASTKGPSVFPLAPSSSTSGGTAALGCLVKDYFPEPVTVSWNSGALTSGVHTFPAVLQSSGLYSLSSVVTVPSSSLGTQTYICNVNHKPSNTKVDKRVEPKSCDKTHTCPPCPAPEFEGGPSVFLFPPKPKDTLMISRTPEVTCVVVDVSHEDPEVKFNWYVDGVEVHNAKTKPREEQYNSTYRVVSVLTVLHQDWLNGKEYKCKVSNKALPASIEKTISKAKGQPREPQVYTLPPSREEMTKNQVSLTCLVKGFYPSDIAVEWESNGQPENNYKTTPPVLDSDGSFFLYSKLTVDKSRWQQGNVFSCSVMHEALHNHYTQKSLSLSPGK
light: QAVLTQPSSVSGAPGQRVTISCTGTSSNIGAGYDIHWYQQLPGTAPKLLMYRFTRRPSGVPDRFSGSKSGTSASLTITGLQVEDEADYYCQSYDSGLRGWVFGGGTKLAVLGQPKAAPSVTLFPPSSEELQANKATLVCLISDFYPGAVTVAWKADSSPVKAGVETTTPSKQSNSKYAASSYLSLTPEQWKSHRSYSCQVTHEGSTVEKTVALTECS
notes: Heavy chain assembled from the VH entry and the constant region entry named tmtIgG1; also called lead N4; N4 clone, tmtIgG1 isotype
B16: binds [4].
